One data set addresses T1, ChlR1 (DDX11), (Homo sapiens, UniProt Q96FC9, Q23A).
T1 sequence (Q96FC9 1-906 isoform Q96FC9-2 Q23A): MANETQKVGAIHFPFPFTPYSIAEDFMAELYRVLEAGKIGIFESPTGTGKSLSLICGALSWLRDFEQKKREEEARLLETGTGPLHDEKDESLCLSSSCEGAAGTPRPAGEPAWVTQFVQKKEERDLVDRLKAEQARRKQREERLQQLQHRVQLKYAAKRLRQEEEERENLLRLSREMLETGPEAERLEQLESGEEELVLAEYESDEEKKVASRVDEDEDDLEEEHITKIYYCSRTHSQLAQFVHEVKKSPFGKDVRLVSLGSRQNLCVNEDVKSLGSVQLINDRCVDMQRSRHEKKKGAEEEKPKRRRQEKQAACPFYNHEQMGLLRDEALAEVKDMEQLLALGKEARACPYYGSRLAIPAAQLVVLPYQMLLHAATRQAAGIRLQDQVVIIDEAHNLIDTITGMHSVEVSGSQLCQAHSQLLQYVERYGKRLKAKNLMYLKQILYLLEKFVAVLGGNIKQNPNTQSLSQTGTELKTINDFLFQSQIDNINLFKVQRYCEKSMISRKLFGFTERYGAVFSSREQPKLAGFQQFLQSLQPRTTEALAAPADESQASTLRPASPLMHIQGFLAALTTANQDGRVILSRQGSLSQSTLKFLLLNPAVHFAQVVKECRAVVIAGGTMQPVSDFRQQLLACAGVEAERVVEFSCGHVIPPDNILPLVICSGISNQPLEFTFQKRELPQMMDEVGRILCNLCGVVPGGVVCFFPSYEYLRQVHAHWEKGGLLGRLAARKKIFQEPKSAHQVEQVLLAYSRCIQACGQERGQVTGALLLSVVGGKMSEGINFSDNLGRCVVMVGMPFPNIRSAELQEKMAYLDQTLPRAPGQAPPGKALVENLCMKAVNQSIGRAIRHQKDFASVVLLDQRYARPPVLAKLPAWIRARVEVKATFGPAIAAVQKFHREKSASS
Nature of the data set: nitrocellulose filter-binding (dot blot) assay.

For another data set, the target named is T2, ChlR1 (DDX11), ChlR1-WT (Homo sapiens, UniProt Q96FC9).
T2 sequence (Q96FC9 1-906 isoform Q96FC9-2): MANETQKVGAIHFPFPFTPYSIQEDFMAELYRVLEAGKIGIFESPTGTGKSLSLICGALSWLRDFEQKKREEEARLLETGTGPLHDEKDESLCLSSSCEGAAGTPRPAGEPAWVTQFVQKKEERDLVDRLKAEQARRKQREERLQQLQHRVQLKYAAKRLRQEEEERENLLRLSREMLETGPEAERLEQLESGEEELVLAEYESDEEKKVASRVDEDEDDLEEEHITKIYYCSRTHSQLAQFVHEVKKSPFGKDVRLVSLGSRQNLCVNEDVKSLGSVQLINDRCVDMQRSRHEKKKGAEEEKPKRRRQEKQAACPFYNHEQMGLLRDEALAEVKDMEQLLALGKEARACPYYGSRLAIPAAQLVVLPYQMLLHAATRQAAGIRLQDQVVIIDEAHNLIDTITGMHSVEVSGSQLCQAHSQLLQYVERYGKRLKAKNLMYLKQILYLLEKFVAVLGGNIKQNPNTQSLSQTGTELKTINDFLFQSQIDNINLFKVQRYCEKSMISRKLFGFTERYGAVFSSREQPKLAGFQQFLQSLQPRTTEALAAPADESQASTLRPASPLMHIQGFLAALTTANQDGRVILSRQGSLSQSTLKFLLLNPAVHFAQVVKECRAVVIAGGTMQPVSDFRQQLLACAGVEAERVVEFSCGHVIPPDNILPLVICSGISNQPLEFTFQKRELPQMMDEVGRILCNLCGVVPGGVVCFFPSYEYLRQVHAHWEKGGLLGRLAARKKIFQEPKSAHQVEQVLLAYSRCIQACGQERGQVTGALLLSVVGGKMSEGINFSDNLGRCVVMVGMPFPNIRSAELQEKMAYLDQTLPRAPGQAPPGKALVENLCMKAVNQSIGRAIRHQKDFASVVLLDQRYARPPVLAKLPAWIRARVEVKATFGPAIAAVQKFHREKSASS
Nature of the data set: nitrocellulose filter-binding (dot blot) assay.

Substrate in data set [1]: Nc1ncnc2c1ncn2[C@@H]1O[C@H](COP(=O)(O)OP(=O)(O)OP(=O)(O)O)[C@@H](O)[C@H]1O
Nature of the data set: [γ-32P]ATP hydrolysis, thin-layer chromatography. In kind it is biochemical, Homo sapiens. The conditions noted are these: 2.1 nM M13mp18 ssDNA, ATP 31-4000 μM, 1 mM Mg acetate, pH 7.5, 37 °C, 30 min, kcat measured separately at 8.5 mM ATP.

For data set [2], the target named is T3, ChlR1-WT (Homo sapiens, UniProt Q96FC9-2 1-906).
T3 sequence: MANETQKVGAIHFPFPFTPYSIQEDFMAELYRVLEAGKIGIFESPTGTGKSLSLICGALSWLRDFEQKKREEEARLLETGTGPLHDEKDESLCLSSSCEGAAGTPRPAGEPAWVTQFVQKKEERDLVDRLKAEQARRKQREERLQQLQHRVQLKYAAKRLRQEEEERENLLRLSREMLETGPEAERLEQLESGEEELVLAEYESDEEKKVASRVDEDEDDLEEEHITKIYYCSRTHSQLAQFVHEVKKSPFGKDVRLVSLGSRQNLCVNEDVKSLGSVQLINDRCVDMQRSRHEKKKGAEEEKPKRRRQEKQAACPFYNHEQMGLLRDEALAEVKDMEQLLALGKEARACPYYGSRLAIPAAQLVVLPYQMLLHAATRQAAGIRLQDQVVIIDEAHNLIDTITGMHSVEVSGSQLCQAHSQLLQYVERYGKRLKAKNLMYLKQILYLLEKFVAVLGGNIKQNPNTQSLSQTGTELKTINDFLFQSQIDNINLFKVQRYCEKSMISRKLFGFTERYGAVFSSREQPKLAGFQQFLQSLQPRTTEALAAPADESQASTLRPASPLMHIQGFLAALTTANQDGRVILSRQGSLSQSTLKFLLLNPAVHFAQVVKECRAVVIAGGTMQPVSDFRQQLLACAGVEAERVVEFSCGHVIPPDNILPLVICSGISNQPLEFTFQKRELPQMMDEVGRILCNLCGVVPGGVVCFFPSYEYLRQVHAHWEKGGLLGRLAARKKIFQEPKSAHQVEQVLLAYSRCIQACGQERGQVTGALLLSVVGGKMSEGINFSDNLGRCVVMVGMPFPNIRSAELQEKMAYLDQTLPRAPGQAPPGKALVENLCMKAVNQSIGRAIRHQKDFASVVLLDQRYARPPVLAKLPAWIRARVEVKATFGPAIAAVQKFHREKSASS
Briefly: fluorescence anisotropy; apparent Kd, no ATP, 21 C, 10 nM DNA; EMSA: 40 mM Tris-HCl pH 7.4, 25 mM KCl, 5 mM MgCl2, 2 mM DTT, 2% glycerol, 100 ng/uL BSA, no ATP, 0.5 nM DNA, room temp 30 min; anisotropy: same buffer, 21 C; filter binding: 25 mM Tris-HCl pH 7.5, 25 mM KOAc, 1 mM Mg(OAc)2, 1 mM DTT, 100 ug/mL BSA, 37 C 30 min. The note with it: protein: recombinant; tags: FLAG; fork, 19 bp duplex; 5' ssDNA tail 26 nt (DC26) and 3' ssDNA tail 25 nt (TSTEM25).

In data set [3] the target is T4, ChlR1-Q23A (Homo sapiens, UniProt Q96FC9-2 1-906, Q23A).
T4 sequence: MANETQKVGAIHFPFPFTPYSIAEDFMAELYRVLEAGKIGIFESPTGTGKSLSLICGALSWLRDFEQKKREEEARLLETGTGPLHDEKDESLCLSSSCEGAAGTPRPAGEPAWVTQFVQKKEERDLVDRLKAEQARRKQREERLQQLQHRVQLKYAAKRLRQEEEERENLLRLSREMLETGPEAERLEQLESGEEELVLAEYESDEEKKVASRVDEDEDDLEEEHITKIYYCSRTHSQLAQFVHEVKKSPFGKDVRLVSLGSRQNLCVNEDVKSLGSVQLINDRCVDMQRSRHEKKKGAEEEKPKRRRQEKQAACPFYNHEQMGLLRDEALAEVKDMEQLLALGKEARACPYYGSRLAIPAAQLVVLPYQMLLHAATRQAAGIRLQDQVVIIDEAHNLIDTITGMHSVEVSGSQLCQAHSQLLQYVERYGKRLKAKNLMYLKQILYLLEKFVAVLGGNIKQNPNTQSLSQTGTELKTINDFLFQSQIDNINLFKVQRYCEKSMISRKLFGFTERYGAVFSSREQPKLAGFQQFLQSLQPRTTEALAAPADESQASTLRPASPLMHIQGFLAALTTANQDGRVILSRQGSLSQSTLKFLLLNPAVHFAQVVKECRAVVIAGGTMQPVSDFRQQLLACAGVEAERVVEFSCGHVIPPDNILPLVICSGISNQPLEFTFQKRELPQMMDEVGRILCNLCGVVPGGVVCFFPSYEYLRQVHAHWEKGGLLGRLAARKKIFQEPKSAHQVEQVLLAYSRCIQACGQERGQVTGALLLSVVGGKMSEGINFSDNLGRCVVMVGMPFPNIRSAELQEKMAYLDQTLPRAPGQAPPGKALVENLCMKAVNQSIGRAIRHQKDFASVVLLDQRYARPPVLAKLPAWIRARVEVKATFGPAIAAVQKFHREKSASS
The description is as above. The note with it: protein: recombinant; tags: FLAG; fork, 19 bp duplex; 5' ssDNA tail 26 nt (DC26) and 3' ssDNA tail 25 nt (TSTEM25).

Data set [4] deals with T3, ChlR1-WT. Briefly: filter binding; 37 C, 1 mM Mg(OAc)2; EMSA: 40 mM Tris-HCl pH 7.4, 25 mM KCl, 5 mM MgCl2, 2 mM DTT, 2% glycerol, 100 ng/uL BSA, no ATP, 0.5 nM DNA, room temp 30 min; anisotropy: same buffer, 21 C; filter binding: 25 mM Tris-HCl pH 7.5, 25 mM KOAc, 1 mM Mg(OAc)2, 1 mM DTT, 100 ug/mL BSA, 37 C 30 min. The conditions noted are these: protein: recombinant; tags: FLAG; label: 32P (5' end); fork, 19 bp duplex; 5' ssDNA tail 26 nt (DC26) and 3' ssDNA tail 25 nt (TSTEM25). (In general: A gel shift assay detects complexes by their altered migration in electrophoresis.)

Data set [5] concerns the target T4, ChlR1-Q23A. The description is as above. The conditions noted are these: protein: recombinant; tags: FLAG; label: 32P (5' end); fork, 19 bp duplex; 5' ssDNA tail 26 nt (DC26) and 3' ssDNA tail 25 nt (TSTEM25).

For the molecule `Nc1ncnc2c1ncn2[C@@H]1O[C@H](COP(=O)(O)OP(=O)(O)OP(=O)(O)O)[C@@H](O)[C@H]1O` [ATP], the Kd was 43.8 nM at ChlR1 (DDX11), and 51.8 nM at ChlR1 (DDX11), ChlR1-WT.

B1: ChlR1 (DDX11), ChlR1-WT (Homo sapiens) (protein)
chain: MANETQKVGAIHFPFPFTPYSIQEDFMAELYRVLEAGKIGIFESPTGTGKSLSLICGALSWLRDFEQKKREEEARLLETGTGPLHDEKDESLCLSSSCEGAAGTPRPAGEPAWVTQFVQKKEERDLVDRLKAEQARRKQREERLQQLQHRVQLKYAAKRLRQEEEERENLLRLSREMLETGPEAERLEQLESGEEELVLAEYESDEEKKVASRVDEDEDDLEEEHITKIYYCSRTHSQLAQFVHEVKKSPFGKDVRLVSLGSRQNLCVNEDVKSLGSVQLINDRCVDMQRSRHEKKKGAEEEKPKRRRQEKQAACPFYNHEQMGLLRDEALAEVKDMEQLLALGKEARACPYYGSRLAIPAAQLVVLPYQMLLHAATRQAAGIRLQDQVVIIDEAHNLIDTITGMHSVEVSGSQLCQAHSQLLQYVERYGKRLKAKNLMYLKQILYLLEKFVAVLGGNIKQNPNTQSLSQTGTELKTINDFLFQSQIDNINLFKVQRYCEKSMISRKLFGFTERYGAVFSSREQPKLAGFQQFLQSLQPRTTEALAAPADESQASTLRPASPLMHIQGFLAALTTANQDGRVILSRQGSLSQSTLKFLLLNPAVHFAQVVKECRAVVIAGGTMQPVSDFRQQLLACAGVEAERVVEFSCGHVIPPDNILPLVICSGISNQPLEFTFQKRELPQMMDEVGRILCNLCGVVPGGVVCFFPSYEYLRQVHAHWEKGGLLGRLAARKKIFQEPKSAHQVEQVLLAYSRCIQACGQERGQVTGALLLSVVGGKMSEGINFSDNLGRCVVMVGMPFPNIRSAELQEKMAYLDQTLPRAPGQAPPGKALVENLCMKAVNQSIGRAIRHQKDFASVVLLDQRYARPPVLAKLPAWIRARVEVKATFGPAIAAVQKFHREKSASS
Broadly, the Km is the concentration of substrate that gives half-maximal velocity. The term kcat denotes the number of substrate molecules converted per active site and unit of time at saturation. As to B1, in data set [1], the Km was determined as 415.7 ± 58.4 µM and the kcat was 1073.3 ± 46.7 s⁻¹.

B2: Forked duplex (DC26/TSTEM25), fluorescein (dsDNA)
DNA 1: TTTTTTTTTTTTTTTTTTTTTTCCCAGTAAAACGACGGCCAGTGC
DNA 2: GCACTGGCCGTCGTTTTACGGTCGTGACTGGGAAAACCCTGGCG
With B2, the figures for the Kd in the data set with ChlR1-WT [2] and with ChlR1-Q23A [3] were 520 nM and 1000 nM, respectively.

B3: Forked duplex (DC26/TSTEM25) (dsDNA)
DNA 1: TTTTTTTTTTTTTTTTTTTTTTCCCAGTAAAACGACGGCCAGTGC
DNA 2: GCACTGGCCGTCGTTTTACGGTCGTGACTGGGAAAACCCTGGCG
Take B3: the Kd with ChlR1-WT [4] was found to be 106 nM; with ChlR1-Q23A [5], 398 nM.

The values are drawn from article PMC4608764, “The Q Motif Is Involved in DNA Binding but Not ATP Binding in ChlR1 Helicase” (PLoS ONE, 2015).
